Target: T1, His6-Ddx21_(motif2) (human, UniProt Q9NR30 1-783, motif2 (aa440–444) -RTIIF- to -RTAIA-)
T1 construct: Site-directed mutagenesis of pRSET-A-DDX21; also called mut2; (aa440–444: motif2); source: E. coli DH5α, purified (SP-Sepharose, Ni-NTA)
T1 sequence (looked up): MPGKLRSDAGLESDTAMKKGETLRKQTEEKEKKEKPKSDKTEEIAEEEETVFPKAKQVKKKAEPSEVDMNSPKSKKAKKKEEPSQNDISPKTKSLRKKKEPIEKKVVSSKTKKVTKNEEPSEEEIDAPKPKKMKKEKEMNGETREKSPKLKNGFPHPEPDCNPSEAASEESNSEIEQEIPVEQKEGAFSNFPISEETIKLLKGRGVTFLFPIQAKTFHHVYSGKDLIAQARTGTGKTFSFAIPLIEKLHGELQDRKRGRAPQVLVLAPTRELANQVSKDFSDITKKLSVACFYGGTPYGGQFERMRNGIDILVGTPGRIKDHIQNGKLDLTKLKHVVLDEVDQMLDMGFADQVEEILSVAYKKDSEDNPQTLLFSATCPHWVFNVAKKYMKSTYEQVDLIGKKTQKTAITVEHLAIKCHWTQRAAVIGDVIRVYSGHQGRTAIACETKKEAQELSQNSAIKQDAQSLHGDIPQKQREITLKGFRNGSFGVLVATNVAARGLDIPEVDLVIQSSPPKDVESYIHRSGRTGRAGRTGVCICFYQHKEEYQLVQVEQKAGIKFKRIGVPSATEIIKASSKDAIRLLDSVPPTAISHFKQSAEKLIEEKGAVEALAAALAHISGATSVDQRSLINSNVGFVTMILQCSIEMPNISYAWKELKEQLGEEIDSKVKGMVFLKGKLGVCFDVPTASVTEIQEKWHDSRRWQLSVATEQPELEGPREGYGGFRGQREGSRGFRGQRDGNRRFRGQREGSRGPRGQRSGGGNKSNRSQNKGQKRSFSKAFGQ
Test: pull-down; 300 ng PP1 and 200 ng His6-Ddx21 in 25 mM Tris pH 7.5, 5% glycerol, 150 mM NaCl, 0.5% Igepal630, 10 mM imidazole, 4°C; Ni-NTA beads; wash 450 mM NaCl, 0.5% Tween-20 (γ: 500 mM NaCl, 0.75% Tween-20); western blot
Conditions: both partners purified

- binding result: binds
B1: PP1β, bacterially expressed and purified (enzyme, human, UniProt P62140 1-327, looked up)
chain: MADGELNVDSLITRLLEVRGCRPGKIVQMTEAEVRGLCIKSREIFLSQPILLELEAPLKICGDIHGQYTDLLRLFEYGGFPPEANYLFLGDYVDRGKQSLETICLLLAYKIKYPENFFLLRGNHECASINRIYGFYDECKRRFNIKLWKTFTDCFNCLPIAAIVDEKIFCCHGGLSPDLQSMEQIRRIMRPTDVPDTGLLCDLLWSDPDKDVQGWGENDRGVSFTFGADVVSKFLNRHDLDLICRAHQVVEDGYEFFAKRQLVTLFSAPNYCGEFDNAGGMMSVDETLMCSFQILKPSEKKAKYQYGGLNSGRPVTPPRTANPPKKR
notes: Protein phosphatase 1 catalytic subunit, isoform β, human; also called protein phosphatase 1 beta
